PMC6675892, “Hepatitis B Virus X Protein Function Requires Zinc Binding” (Journal of Virology, 2019)

B1: HBx H-box peptide (wild type) (peptide)
peptide: ILPKVLHKRTLGLSA
B2: SV5-V (natural protein)
chain: MDPTDLSFSPDEINKLIETGLNTVEYFTSQQVTGTSSLGKNTIPPGVTGLLTNAAEAKIQESTNHQKGSVGGGAKPKKPRPKIAIVPADDKTVPGKPIPNPLLGLDSTPSTQTVLDLSGKTLPSGSYKGVKLAKFGKENLMTRFIEEPRENPIATSSPIDFKRGRDTGGFHRREYSIGWVGDEVKVTEWCNPSCSPITAAARRFECTCHQCPVTCSECERDT
notes: also called V protein of paramyxovirus SV5; source: E. coli Rosetta, purified (glutathione agarose, thrombin cleavage, MonoQ, Superdex 75); not shown: GST, N-terminal, cleaved

Experiments:
GST-DDB1 [1] = biological target: GST-DDB1 (UniProt Q16531); assay: AlphaScreen or HTRF; TR-FRET competition; 3 nM coexpressed His-HBx:GST-DDB1 complex preincubated with increasing untagged competitor 1 h at room temperature; Eu-cryptate anti-His and d2 anti-GST antibodies; 20 mM HEPES pH 7.2, 50 mM NaCl, 0.1 mg/ml BSA, 0.01% Brij-35, 0.5 mM TCEP
[2] = biological target: His-HBx expressed alone (detergent solubilized) (hepatitis B virus (genotype D)) (UniProt P03165); assay: AlphaScreen or HTRF; TR-FRET competition; 5 nM His-HBx and 5 nM GST-DDB1 expressed separately, preincubated with increasing untagged competitor 30 min at room temperature; Eu-cryptate anti-His and d2 anti-GST antibodies; 25 mM HEPES pH 7.2, 400 mM NaCl, 0.1 mg/ml BSA, 0.01% Brij-35, 0.5 mM TCEP
[3] = biological target: His-HBx coexpressed with GST-DDB1 (hepatitis B virus (genotype D)) (UniProt P03165); assay: AlphaScreen or HTRF; TR-FRET competition; 3 nM coexpressed His-HBx:GST-DDB1 complex preincubated with increasing untagged competitor 1 h at room temperature; Eu-cryptate anti-His and d2 anti-GST antibodies; 20 mM HEPES pH 7.2, 50 mM NaCl, 0.1 mg/ml BSA, 0.01% Brij-35, 0.5 mM TCEP
GST-DDB1 [4] = biological target: GST-DDB1 (UniProt Q16531); assay: AlphaScreen or HTRF; TR-FRET competition; 5 nM His-HBx and 5 nM GST-DDB1 expressed separately, preincubated with increasing untagged competitor 30 min at room temperature; Eu-cryptate anti-His and d2 anti-GST antibodies; 25 mM HEPES pH 7.2, 400 mM NaCl, 0.1 mg/ml BSA, 0.01% Brij-35, 0.5 mM TCEP
DDB1 = DDB1 (UniProt Q16531); assay: AUC; sedimentation velocity at 20 C, absorbance at 280 nm, c(s) distribution (SEDFIT), each protein in its final storage buffer
GST-DDB1 [5] = biological target: T1, GST-DDB1 (UniProt Q16531 1-1140); assay: AlphaScreen or HTRF; TR-FRET competition; 5 nM His-HBx and 5 nM GST-DDB1 expressed separately, preincubated with increasing untagged competitor 30 min at room temperature; Eu-cryptate anti-His and d2 anti-GST antibodies; 25 mM HEPES pH 7.2, 400 mM NaCl, 0.1 mg/ml BSA, 0.01% Brij-35, 0.5 mM TCEP; conditions: both partners purified
T1 construct: also called glutathione S-transferase (GST)-DDB1; not shown: GST, N-terminal, kept

GST-DDB1 [6] = biological target: T1, GST-DDB1; assay: AlphaScreen or HTRF; TR-FRET competition; 3 nM coexpressed His-HBx:GST-DDB1 complex preincubated with increasing untagged competitor 1 h at room temperature; Eu-cryptate anti-His and d2 anti-GST antibodies; 20 mM HEPES pH 7.2, 50 mM NaCl, 0.1 mg/ml BSA, 0.01% Brij-35, 0.5 mM TCEP; conditions: both partners purified

| Molecule | IC50 (GST-DDB1 [1]) | IC50 (GST-DDB1 [5]) | IC50 (GST-DDB1 [6]) | other results |
| --- | --- | --- | --- | --- |
| HBx H-box peptide (R96E mutant) (from UniProt P03165 88-102) (peptide; other documents disagree on this pair) | > 100000 nM |  |  |  |
| DDB1 (from UniProt Q16531 1-1140) (natural protein) |  |  |  | IC50 [2]: 204 nM; IC50 [3]: 16 nM |
| recombinant untagged HBx (from UniProt P03165 1-154) (natural protein) | 9 nM |  |  | IC50 (GST-DDB1 [4]): 61 nM |
| HBx coexpressed with DDB1 (HBx:DDB1 coexpressed complex) (from UniProt P03165 1-154) (natural protein) |  |  |  | stoichiometry N (DDB1): 1 |
| B1 |  | 5000 nM | 1560 nM |  |
| B2 |  | 7 nM | 4 nM |  |
